How the values were obtained:
KP-VR2 (human) [1] = experiment: BLI
Aflibercept = experiment: ELISA
KP-VR2 (human) [2] = experiment: ELISA

B1: Human PlGF-1 (ligand)
chain: LPAVPPQQWALSAGNGSSEVEVVPFQEVWGRSYCRALERLVDVVSEYPSEVEHMFSPSCVSLLRCTGCCGDENLHCVPVETANVTMQLLKIRSGDRPSYVELTFSQHVRCECRPLREKMKPERCGDAVPRR
With B1 the Kd (KP-VR2 (human) [1]) was 0.78 nM, the EC50 (Aflibercept) was 30.5 nM and the EC50 (KP-VR2 (human) [2]) was 2.39 nM.

Reference: publication doi:10.1101/2021.02.02.429416
